One substance from patent US20190270997 can be followed below.

Series [1] addresses HA-tagged KMT2D (full length, wild type) (UniProt O14686).
In a further series the target is HA-tagged KMT2D S1331A (UniProt O14686).
Series [2] concerns the target V5-tagged KMT2D fragment (1222-1819) (UniProt O14686).

Chain of recombinant His-AKT (MRC-PPU Reagents DU1850) (P31749 whole entry): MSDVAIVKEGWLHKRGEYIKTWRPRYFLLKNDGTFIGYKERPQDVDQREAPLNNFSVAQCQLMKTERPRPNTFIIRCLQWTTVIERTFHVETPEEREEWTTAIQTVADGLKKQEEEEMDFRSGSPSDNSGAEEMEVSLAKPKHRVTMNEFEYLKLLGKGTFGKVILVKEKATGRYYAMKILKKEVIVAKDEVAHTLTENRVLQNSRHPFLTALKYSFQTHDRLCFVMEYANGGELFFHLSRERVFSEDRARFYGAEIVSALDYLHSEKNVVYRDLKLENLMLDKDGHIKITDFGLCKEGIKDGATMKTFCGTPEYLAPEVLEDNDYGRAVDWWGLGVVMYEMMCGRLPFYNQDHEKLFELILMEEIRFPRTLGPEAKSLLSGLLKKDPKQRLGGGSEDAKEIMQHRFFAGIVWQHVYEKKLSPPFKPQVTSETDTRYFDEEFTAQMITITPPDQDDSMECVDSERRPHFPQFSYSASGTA

Consider “recombinant His-AKT (MRC-PPU Reagents DU1850)”, for which the “in vitro kinase assay; phosphorylation detected by phospho-RXRXX(S/T) and phospho-KMT2D (S1331) antibodies” value was “The kinase assay confirmed the ability of AKT to directly phosphorylate S1331” in series [1] and “Mutation of serine to alanine (S1331A) completely abrogated the ability of AKT to phosphorylate KMT2D in vitro” with HA-tagged KMT2D S1331A. Also, the “in vitro kinase assay with the KMT2D (1222-1819) fragment as substrate (FIG. 11C)” value in series [2] is “The kinase assay confirmed the ability of AKT to directly phosphorylate S1331”.
